Kd data for one substance are collected here from publication PMC3279696.

pKd: −log10 of the molar value.

For this assay, the target named is NLGN-1ΔAB-Fc (neuroligin-1 lacking splice inserts A and B, residues Q46-S693, with a C-terminal Fc domain) (UniProt Q62765). The assay can be described thus: SPR. For orientation: In SPR one partner is held on a chip, and binding of the other changes the refractive index at the surface.

As a reminder, the pKd is the negative decadic logarithm of the Kd, by convention in mol/L. Lower therefore signals a large Kd. “β-NRXN-1 (ΔSS#4), soluble recombinant (domain or fragment)” gave a pKd of 7.52.
